Molecular target: Gdown1 (in vitro, construct not stated) (UniProt P0CAP2)

Gdown1 (in vitro, construct not stated) (from UniProt P0CAP2-1 1-368) (natural protein), sequence (P0CAP2 whole entry): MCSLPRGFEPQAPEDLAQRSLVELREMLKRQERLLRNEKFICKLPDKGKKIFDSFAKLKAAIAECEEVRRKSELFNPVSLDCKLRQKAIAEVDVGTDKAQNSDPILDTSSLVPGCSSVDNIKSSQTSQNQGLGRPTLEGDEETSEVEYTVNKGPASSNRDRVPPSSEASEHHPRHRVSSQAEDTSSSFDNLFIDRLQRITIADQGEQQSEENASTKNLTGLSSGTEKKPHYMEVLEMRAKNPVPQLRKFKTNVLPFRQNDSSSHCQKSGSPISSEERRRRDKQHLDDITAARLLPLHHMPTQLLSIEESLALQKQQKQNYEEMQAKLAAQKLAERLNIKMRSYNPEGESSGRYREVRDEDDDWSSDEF

stoichiometry N: 2
Substance: Gdown1 (in vitro, construct not stated) (from UniProt P0CAP2-1 1-368) (natural protein)

From publication PMC3259531
